# Reference: the supplement of paper PMC10724198
# ± gives the standard deviation of the averaged measurements.
# System: Saccharomyces cerevisiae
# Assay: protein stability index of tFT-peptide fusion (C-terminal peptide) (PSI (0-1 scale)); higher = more stable (slower turnover)
# Settings: genetic background: wild type; temperature: 30 C
# 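Further: PSI is a weighted mean of sequencing reads over stability bins, variants kept only with over 10 reads, mCherry proximal and sfGFP distal, peptide attached via GGGS linker.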
row,Sequence,protein stability index
1,LSFLSDFCLWVL,0.659 ± 0.053
2,FPFWRLYNLELL,0.492 ± 0.022
3,FPPPLPPRLPPP,0.702 ± 0.0061
4,PLHMWFSLLKPS,0.716 ± 0.074
5,CGSTLLPESYIQ,0.645 ± 0.052
6,GSLLVCGMVAGM,0.5236 ± 0.0046
7,STLPPPSSPFHP,0.96 ± 0.021
8,PLPPTFPSPLPP,0.665 ± 0.008
9,VLKYSVQHREFS,0.685 ± 0.019
10,KVSPTAGLTSRI,0.711 ± 0.061
11,GRVFDTNGIGLG,0.694 ± 0.074
12,RVVCFPAPLMPR,0.705 ± 0.05
13,YLQPSGSRPGAK,0.715 ± 0.014
14,PPPPLPPPPSPL,0.653 ± 0.078
15,NKFETCIANMYI,0.718 ± 0.058
16,PVCELCLITLRG,0.59 ± 0.053
17,TLKGERHKKNKR,0.623 ± 0.035
18,GGGGGFAPGVTG,0.698 ± 0.046
19,LRRPSPPTPSPP,0.86 ± 0.2
20,DLRHLLVPVPRI,0.7066 ± 0.0022
21,PPPNPPATTTTP,0.6685 ± 0.0012
22,LPSRLPPQPSPA,0.687 ± 0.071
23,KIKTKKGTKKRK,0.677 ± 0.039
24,ASPALPAPRSAP,0.704 ± 0.057
25,KKKKKIKKKHNK,0.6859 ± 0.001
26,GSVFVFWESWRC,0.6803 ± 0.0029

row,Sequence,protein stability index
1,RRTTTDSPRADR,0.708 ± 0.047
2,AGVTRALSVFLL,0.54 ± 0.043
3,GGVVCWACRWEL,0.671 ± 0.04
4,RIPHRTRLARPT,0.6716 ± 0.0064
5,RRLDGDLSPPIR,0.664 ± 0.095
6,EVGTSGTWPGSV,0.714 ± 0.013
7,VPWVFVYGEGVR,0.734 ± 0.024
8,KRGSREQQRYWK,0.659 ± 0.027
9,PPPPPPPTPPPP,0.673 ± 0.014
10,GPSREFGSNWII,0.612 ± 0.034
11,LLPAPLPTALPL,0.65 ± 0.07
12,PAELGAGYVMGG,0.699 ± 0.022
13,SFVSDYIILIVL,0.497 ± 0.081
14,AEAFFRIVRTVR,0.721 ± 0.034
15,PPSPAPHATARP,0.662 ± 0.062
16,QTPPPLPSPHPH,0.635 ± 0.09
17,SVHPVNRDPSRH,0.6904 ± 0.0014
18,APTPPPPLSPRS,0.69 ± 0.034
19,PRPLTRPVPPLS,0.68 ± 0.13
20,SSIEAGFSSIVI,0.685 ± 0.04
21,GPSPFCTIRLKN,0.655 ± 0.018
22,AGYENKAENKSV,0.656 ± 0.011
23,SPPLTSPPPAPP,0.7 ± 0.017
24,GKGGAEHADQVL,0.669 ± 0.099
25,AYTSVSVDHLIH,0.673 ± 0.0069
26,RHAMNPNTSRVL,0.601 ± 0.042

row,Sequence,protein stability index
1,LLPPPVFPPLSP,0.753 ± 0.013
2,VTLGLSMVQWTY,0.5702 ± 0.0025
3,SVSGPAPPSMSS,0.618 ± 0.12
4,YSHSRVNPDAWG,0.669 ± 0.11
5,KICHTKKKNKKK,0.769 ± 0.046
6,TSKPGLQIPRRE,0.747 ± 0.047
7,QSILGLVERVIK,0.643 ± 0.032
8,GGELVKGWGSRV,0.678 ± 0.072
9,GCMVFTGGKRVL,0.672 ± 0.03
10,SPSPLSLRLPPP,0.632 ± 0.028
11,NPMSLTTKRKTE,0.651 ± 0.11
12,KGNDQVLRLFIR,0.73 ± 0.021
13,QKHTTKKTKTRY,0.728 ± 0.037
14,FLCPGELSYFCV,0.666 ± 0.03
15,QPDQSKPSTPEP,0.674 ± 0.051
16,GYARESERFGIH,0.694 ± 0.011
17,IYSTRWRRGRVE,0.699 ± 0.044
18,PLTVPLPLALSP,0.684 ± 0.047
19,AARRPARACGGQ,0.632 ± 0.025
20,LCAFPFSHPSSI,0.74 ± 0.05
21,SLQAYASALIHV,0.687 ± 0.0098
22,WGAGGGGWGGGV,0.685 ± 0.024
23,SPAPPSQFPSFA,0.818 ± 0.11
24,EDRYIGITRYKD,0.682 ± 0.11
25,DGVRGDVVTGYL,0.7131 ± 0.0057
26,KIKKRRKKDNKR,0.7145 ± 0.0013

row,Sequence,protein stability index
1,PIPTQYPPPKAP,0.675 ± 0.069
2,WGLCIGTGWALG,0.708 ± 0.0092
3,GGGVGGWGTWVV,0.715 ± 0.1
4,ERYRDVPVTSNR,0.724 ± 0.013
5,CTGLEGGGLPFR,0.636 ± 0.12
6,LGCLHRLLGVRL,0.752 ± 0.048
7,SFLVPLTAHISP,0.673 ± 0.083
8,VSWGVALAVLRT,0.603 ± 0.029
9,GGWWVLCGGGWG,0.567 ± 0.025
10,GDSPLQAPPSLL,0.708 ± 0.1
11,VSEFTSHQYDSE,0.746 ± 0.048
12,YILSSFPSCLVL,0.64 ± 0.034
13,SSPCFGKLRHFL,0.686 ± 0.035
14,RCVGVLYVAGLE,0.6533 ± 0.0012
15,RLGRSEVREYAW,0.716 ± 0.024
16,RCAGWSVDVGEG,0.623 ± 0.17
17,TRAKVQSRGSLS,0.708 ± 0.039
18,CRGILVGVWRCG,0.5856 ± 0.0014
19,VKTGIKQSLTEP,0.6982 ± 0.0037
20,EKKEKTPKPKPR,0.685 ± 0.025
21,PPSATPPHPPPS,0.666 ± 0.052
22,EHLYIYGKDKWK,0.602 ± 0.025
23,VYRGSQKQRAQG,0.685 ± 0.024
24,CLRRGGAGDGAS,0.678 ± 0.011
25,TTPRAILPLSSI,0.67 ± 0.043
26,PTFRLGGYYRKS,0.703 ± 0.055

row,Sequence,protein stability index
1,GIVFGMRKSDFK,0.764 ± 0.1
2,LSPPQRISLIPY,0.659 ± 0.03
3,DRLPRHLPSLLP,0.715 ± 0.037
4,VTRGGRVFIVDL,0.807 ± 0.094
5,LPPPSFPSISLF,0.675 ± 0.14
6,VFVPCIFRQIAG,0.6096 ± 0.0019
7,SAGGARSLQMFC,0.66 ± 0.027
8,GRVSFFDYSRER,0.704 ± 0.06
9,SYLMVATRFGEN,0.741 ± 0.067
10,LKQTNQHKVNTD,0.643 ± 0.053
11,FAFWGGHSWLSC,0.791 ± 0.035
12,CLVSGGRVSRGA,0.6578 ± 0.0019
13,GRRERSGKGKER,0.804 ± 0.14
14,SLFLFCLRCLQF,0.576 ± 0.037
15,SVPFPTEYLVVD,0.681 ± 0.075
16,EVLLVHWINPNA,0.687 ± 0.047
17,NSALQELNKAVG,0.625 ± 0.029
18,IALLQRTSSTPD,0.748 ± 0.028
19,LHFYASFPSPLV,0.669 ± 0.044
20,KKKKKKGKGAKT,0.617 ± 0.011
21,VRGKYNNGNKKM,0.675 ± 0.013
22,PYKASGLAGCAV,0.697 ± 0.008
23,LYVFFRFPSCLS,0.555 ± 0.018
24,GGIGYRRQAAQA,0.673 ± 0.068
25,SLPCLFPPPLLP,0.726 ± 0.045
26,RIVLLICPYPVL,0.554 ± 0.056

row,Sequence,protein stability index
1,HPCKKEKLYHLK,0.594 ± 0.091
2,KYISKKKKEKKK,0.684 ± 0.06
3,ECCDSGLCWLTF,0.754 ± 0.034
4,PHLDSPGPLAII,0.682 ± 0.023
5,GPGSWKWKSRRV,0.6634 ± 0.0034
6,FFFGFFSVLSLG,0.606 ± 0.089
7,LGVFAVGGVRLG,0.668 ± 0.008
8,SRRETKTRLAPN,0.656 ± 0.14
9,ETVRPYSPMRPG,0.674 ± 0.016
10,FSAFWLACFFGV,0.717 ± 0.062
11,EAGESKNVDSLL,0.638 ± 0.0081
12,IENVETSLKVVG,0.651 ± 0.0081
13,PLRTLFGDHLLV,0.6826 ± 0.002
14,KKKKRIQEKEII,0.63 ± 0.015
15,AHQRSRRPKPSR,0.65 ± 0.072
16,ELRLYFPRLFQF,0.496 ± 0.0078
17,PPPCRPSQFPPL,0.742 ± 0.015
18,GRASGGGLGRGR,0.593 ± 0.0086
19,PPTPSAPHRTRI,0.732 ± 0.026
20,CLWSDQLFFYFG,0.734 ± 0.025
21,RTTKRKIKIIGI,0.709 ± 0.013
22,WCRHREYFYGSN,0.657 ± 0.032
23,WGGRSVGGVVWR,0.714 ± 0.036
24,GSFPNSADQTFD,0.659 ± 0.014
25,PPPPHTPPLPRS,0.757 ± 0.048
26,GPLEGGDGRWVG,0.6852 ± 0.0015

row,Sequence,protein stability index
1,ALLPTLFNSGAV,0.736 ± 0.015
2,SPRRFVVVSGQG,0.643 ± 0.012
3,DPAASNTTTRRL,0.686 ± 0.064
4,PLRSLNHSGRPP,0.641 ± 0.06
5,VRVFLSNALFHH,0.596 ± 0.019
6,ASGRARVIGVCR,0.704 ± 0.029
7,FPLSLCPHRPSL,0.716 ± 0.034
8,ALSPAPGTSLMR,0.69 ± 0.016
9,VWRGPVVAAGWG,0.659 ± 0.018
10,SFSLSMFVTYSF,0.505 ± 0.03
11,EAPRTPPSVPVN,0.7866 ± 0.0051
12,QSRSEVFPCHAS,0.848 ± 0.15
13,FWPPLTNLCTLL,0.687 ± 0.011
14,PLPSPPAPNSPQ,0.6793 ± 0.0053
15,SLRKVTEKDKRT,0.677 ± 0.064
16,GGGARSPSGCAN,0.712 ± 0.019
17,VRYGSHRNMSLL,0.819 ± 0.053
18,FSVVGVFNIYGM,0.6214 ± 0.0023
19,KKKKKRKKKKEK,0.683 ± 0.044
20,PRPPPHPPPSPL,0.50931 ± 0.00043
21,VARCWGGLGLAR,0.692 ± 0.047
22,FFLPPPPPPPPL,0.677 ± 0.015
23,CRAPSPRPWRPH,0.708 ± 0.062
24,DKERRSKNRERR,0.698 ± 0.07
25,YCRSFSGPFFDI,0.745 ± 0.094
26,CGLRRFTGLAWS,0.6372 ± 0.00093

row,Sequence,protein stability index
1,AGGWLGAEGCGG,0.78 ± 0.033
2,PPSVPSRLSHVL,0.69 ± 0.034
3,SVVGEKAALMGV,0.662 ± 0.014
4,SLTLVCRKYILL,0.633 ± 0.024
5,PPAPPPCTPPPP,0.69493 ± 0.0002
6,LFPSSGTRLTPS,0.667 ± 0.027
7,TNANKKNGRGNT,0.683 ± 0.041
8,MVSMFRLFLGLV,0.589 ± 0.016
9,VGFSVLGGRAGW,0.712 ± 0.044
10,PYAPYRPQVDSS,0.708 ± 0.018
11,NKKKKQRINIRG,0.749 ± 0.068
12,YDSGNWPGFRCQ,0.73 ± 0.055
13,EGDQSRMTQPRG,0.647 ± 0.034
14,GVGFGGGGVWME,0.746 ± 0.031
15,SSCRKFLFAIRR,0.685 ± 0.02
16,GKSGGTGAGEKR,0.661 ± 0.046
17,LPPSPPTVPSPP,0.67 ± 0.027
18,GGVSGESAVVSV,0.649 ± 0.038
19,EVCLTLTTADGH,0.68826 ± 0.00011
20,TGEVPPPRCEGE,0.638 ± 0.014
